Laboratory results as given in patent publication US20220348651A1 (Novartis, published 2022).
Several values for one entry are separate records, joined by “and”; a condition that tells them apart may be missing. Equal values may be shown once.

Tests used:
[1] = molecular target: recombinant human ENTPD2 extracellular domain (residues 29-462) with C-terminal Avi-His6 tag (human, UniProt Q9Y5L3 29-462, biotinylated on the AviTag in the epitope binning assay); assay: cell-based or functional assay
[2] = molecular target: human FcγRIIIa, V158 (high affinity variant) on engineered Jurkat cells (human, UniProt P08637 17-254); assay: cell-based or functional assay
Chain of human FcγRIIIa, V158 (high affinity variant) on engineered Jurkat cells (P08637 other isoform, or with tags, fused parts or gaps mutant limits assumed): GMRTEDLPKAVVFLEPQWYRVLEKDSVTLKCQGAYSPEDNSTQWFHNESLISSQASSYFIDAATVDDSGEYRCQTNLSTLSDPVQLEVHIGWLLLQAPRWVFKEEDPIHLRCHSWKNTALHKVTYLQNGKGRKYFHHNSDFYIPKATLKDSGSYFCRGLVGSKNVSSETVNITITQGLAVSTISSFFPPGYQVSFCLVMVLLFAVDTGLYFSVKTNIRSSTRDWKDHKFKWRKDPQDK

Chain of recombinant human ENTPD2 extracellular domain (residues 29-462) with C-terminal Avi-His6 tag (Q9Y5L3 29-462): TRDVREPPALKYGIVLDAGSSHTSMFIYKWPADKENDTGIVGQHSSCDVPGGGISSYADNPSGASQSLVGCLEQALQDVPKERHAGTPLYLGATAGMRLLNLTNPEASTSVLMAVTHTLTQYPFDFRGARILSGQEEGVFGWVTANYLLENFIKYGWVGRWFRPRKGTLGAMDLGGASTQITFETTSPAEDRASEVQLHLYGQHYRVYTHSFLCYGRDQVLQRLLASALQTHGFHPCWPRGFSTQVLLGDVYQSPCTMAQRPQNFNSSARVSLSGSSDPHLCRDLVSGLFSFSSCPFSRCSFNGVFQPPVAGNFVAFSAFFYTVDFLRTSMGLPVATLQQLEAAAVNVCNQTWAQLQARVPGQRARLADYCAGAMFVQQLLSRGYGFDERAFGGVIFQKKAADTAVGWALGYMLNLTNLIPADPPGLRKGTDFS

IC50, ENTPD2 Biochemical Assay at 1 uM ATP [1]: 0.52 nM
EC50, Jurkat FcγRIIIa V158 NFAT-luciferase reporter with RKO cells [2]: 17.3 nM and 2.55 µg/mL
B1: ANTI-HUMAN ENTPD2 MAB1 (antibody, human IgG1, kappa)
heavy: not shown
light: DIQLTQSPSSLSASVGDRVTITCSASSSVSYIHWFQQKPGKAPKLLIYSTSNLASGVPSRFSGSGSGTFFTLTISSLQPEDFATYFCHQWSSYPWTFGQGTKVEIKRTVAAPSVFIFPPSDEQLKSGTASVVCLLNNFYPREAKVQWKVDNALQSGNSQESVTEQDSKDSTYSLSSTLTLSKADYEKHKVYACEVTHQGLSSPVTKSFNRGEC
notes: humanized from mAb17; human IgG1, kappa; also called anti-ENTPD2 mAb1
